Measurements from patent US20210403565A1 (BIOATLA, published 2021).

T1: human CTLA4 on CTLA4 Jurkat effector cells (Promega CTLA4 Blockade Assay) (human, UniProt P16410 36-223)
T1 sequence (looked up): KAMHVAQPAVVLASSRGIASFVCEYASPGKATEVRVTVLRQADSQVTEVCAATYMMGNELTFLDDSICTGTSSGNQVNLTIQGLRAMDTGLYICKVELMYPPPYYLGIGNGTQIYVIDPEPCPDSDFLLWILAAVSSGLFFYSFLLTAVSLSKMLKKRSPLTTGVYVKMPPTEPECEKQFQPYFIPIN

T2: recombinant human CTLA4 extracellular domain (human, UniProt P16410 36-161)
T2 construct: extracellular domain; also called huCTLA-4
T2 sequence (looked up): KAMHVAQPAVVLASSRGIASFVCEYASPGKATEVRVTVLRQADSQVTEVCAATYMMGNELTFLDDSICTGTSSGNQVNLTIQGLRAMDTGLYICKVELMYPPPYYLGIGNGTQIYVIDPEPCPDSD

T3: human CTLA4 expressed on the cell surface of CHO cells (human, UniProt P16410 36-223)
T3 construct: whole, on cells; also called CHO-huCTLA4; huCTLA4
T3 sequence (looked up): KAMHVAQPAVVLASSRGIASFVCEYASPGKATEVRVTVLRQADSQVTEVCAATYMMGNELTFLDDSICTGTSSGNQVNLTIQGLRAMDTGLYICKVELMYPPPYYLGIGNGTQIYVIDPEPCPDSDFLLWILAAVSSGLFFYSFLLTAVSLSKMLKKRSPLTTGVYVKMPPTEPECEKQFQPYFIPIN

T4: cynomolgus CTLA4 expressed on the cell surface of CHO cells (cynomolgus, UniProt G7PL88 36-223)
T4 construct: whole, on cells; also called CHO-cynoCTLA4
T4 sequence: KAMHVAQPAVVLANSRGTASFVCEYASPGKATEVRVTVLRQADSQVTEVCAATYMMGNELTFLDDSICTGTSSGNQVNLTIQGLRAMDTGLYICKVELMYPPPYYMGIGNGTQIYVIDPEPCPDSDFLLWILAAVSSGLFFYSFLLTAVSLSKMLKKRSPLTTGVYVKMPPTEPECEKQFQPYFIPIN


Experiments:
[1] = target: T1, human CTLA4 on CTLA4 Jurkat effector …; test: cell-based or functional assay
[2] = target: T2, recombinant human CTLA4 extracellular …; test: ELISA, immobilised huCTLA-4, table head pH 7.0 (text: pH 7.4), mean +/- SD
[3] = target: T2, recombinant human CTLA4 extracellular …; test: ELISA, wells coated with human CTLA4, assay pH 7.4; lot 6972 in His buffer, T0; unit from the axis Log[ng/mL]
Description: (§1) Both ELISA and FACS analysis were used to measure the binding activity. […] The amount of bound antibodies was quantified using anti-human IgG antibody conjugated to HRP. The absorbance at 450 nm in each measurement was proportional to the amount of antibodies bound. […] EC50 value (in ng/mL) for binding to human CTLA4 was determined by absorbance at 450 nm against antibody concentration with Prism variable slope of four-parameter dose-response curve, which was calculated using the nonlinear fit (variable slope, four parameters) model built into GraphPad Prism software (version 7.03). The buffers tested included His buffer (His), Tris buffer (Tris), Glutamine buffer (Glu) and no buffer.

[4] = target: T2, recombinant human CTLA4 extracellular …; test: ELISA, wells coated with human CTLA4, assay pH 7.4; lot 6972 in Tris buffer, T0; unit from the axis Log[ng/mL]
Description: as §1

[5] = target: T3, human CTLA4 expressed on the cell …; test: FACS, cells expressing human CTLA4, assay pH 6.0, MFI; lot 6972 in His buffer, T2W; unit from the axis Log[ng/mL]
Description: (§2) The amount of bound antibodies was quantified using anti-human IgG antibody conjugated to fluorophores. The MFI in each reaction was proportional to the amount of antibodies bound. The EC₅₀ value (in ng/mL) for binding to human CTLA4 on cells was determined by MFI of the singlets population against antibody concentration with a Prism variable slope of four-parameter dose-response curve, which was calculated using the nonlinear fit (variable slope, four parameters) model built into GraphPad Prism software (version 7.03).

[6] = target: T4, cynomolgus CTLA4 expressed on the cell …; test: FACS, CHO cells expressing cynomolgus CTLA4 (CHO-cynoCTLA-4), pH 7.4, MFI; curve still rising at log 5 (about 600000 against about 1900000 for Ipilimumab), no plateau; no unit in the table, unit from the axis Log Antibodies [ng/ml]
Description: The amount of antibodies bound on the cells was quantified using anti-human IgG antibody conjugated to fluorophores. EC₅₀ values at pH 6.0 and 7.4 for binding to cells were calculated using the nonlinear fit (variable slope, four parameters) model built into GraphPad Prism software (version 7.03). The expression levels of human CTLA4 or cynomolgus CTLA4 on the surface of the CHO cells were determined using a BD QuantiBRITE™ PE kit.
At least two independent duplicate FACS experiments were performed for each antibody using each of the cell lines. The binding activities at different concentrations of the antibodies are plotted in these figures.

[7] = target: T2, recombinant human CTLA4 extracellular …; test: ELISA, wells coated with human CTLA4, assay pH 6.0; lot 6978 in His buffer, T2W; unit from the axis Log[ng/mL]
Description: as §1

[8] = target: T2, recombinant human CTLA4 extracellular …; test: ELISA, wells coated with human CTLA4, assay pH 6.0; lot 6978 in Glu buffer, T2W; unit from the axis Log[ng/mL]
Description: as §1

[9] = target: T3, human CTLA4 expressed on the cell …; test: FACS, cells expressing human CTLA4, assay pH 6.0, MFI; lot 6978 in His buffer, T0; unit from the axis Log[ng/mL]
Description: as §2

[10] = target: T3, human CTLA4 expressed on the cell …; test: FACS, cells expressing human CTLA4, assay pH 6.0, MFI; lot 6978 in Tris buffer, T2W; unit from the axis Log[ng/mL]
Description: as §2

[11] = target: T2, recombinant human CTLA4 extracellular …; test: ELISA, wells coated with human CTLA4, assay pH 7.4; lot 6978 in Tris buffer, T0; curve still rising at log 3 (OD450 at most about 0.3), no plateau; unit from the axis Log[ng/mL]
Description: as §1

[12] = target: T2, recombinant human CTLA4 extracellular …; test: ELISA, wells coated with human CTLA4, assay pH 7.4; lot 6978 without test buffer; curve still rising at log 3 (OD450 about 0.2), no plateau; same column repeated in FIG. 9E and FIG. 9F; unit from the axis Log[ng/mL]
Description: as §1

EC50 of bioluminescence (RLUs), Promega CTLA4 Blockade Assay, pH 6.0; unit from the axis Log (µg/mL) [1]	EC50 [2]	EC50 [3]	EC50 [4]	EC50 [5]	EC50 [6]	EC50 [7]	EC50 [8]	EC50 [9]	EC50 [10]	EC50 [11]	EC50 [12]	Binder
1.2 µg/mL	0.0598 µg/mL	0.0544 µg/mL	0.0424 µg/mL	0.295 µg/mL	8.28 µg/mL							BA-087-05-19 (antibody, V domains shown, Detected with anti-human IgG and a molecular weight of 146 kDa was used in SPR, so it was tested as a whole IgG; also called BA-087-05-019; BA-087-05-19 (# 6972)) VH: EVQLVESGGGLVQPGGSLRLSCAASGFTFSHYTMHWVRQAPGKGLEWVSFISYDGNNKYYADSVKGRFTISRDNSKNTLYLQMNSLRAEDTAVYYCARTGWLGPFDYWGQGTLVTVSS VL: AIQLTQSPSSLSASVGDRVTITCRASQYVGSSYLAWYLQKPGQSPQLLIYGAFSRATGIPARFSGSGSGTEFTLTISSLQSEDFAVYYCQQDGSSPWTFGQGTKVEIK
						0.0441 µg/mL	0.0123 µg/mL	0.159 µg/mL	~0.152 µg/mL	1.14 µg/mL	1.14 µg/mL	BA-087-08-32 (antibody, V domains shown, Detected with anti-human IgG and a molecular weight of 146 kDa was used in SPR, so it was tested as a whole IgG; also called BA-087-08-032; BA-087-08-32 (# 6978)) VH: EVQLVQSGAEVKKPGATVKISCKVSGFTFSHYTMHWIRQSPSRGLEWLGFISYDGNYKYYADSVKGRFTISRDNAKNSLYLQMNSLRAEDTAVYYCARTGWLGPFDYWGQGTLVTVSS VL: EIVMTQSPATLSVSPGERATLSCRASQSVGSSYLAWYQQKPGKAPKLLIYGAFSRATGVPSRFSGSGSGTDFTLTISSLQPEDFATYYCQQDGSSPWTFGQGTKVEIK
